Source: the supplement of paper PMC10567573

B1: AUP1 (parent)
chain: EGLLRFSSWPFSIQDVVQPLTLQV

Variants of: B1
Assay: protein stability index of a GFP-peptide fusion (GPS, HEK-293T) (PSI 1-6); higher = more stable
Details: c terminus: a fixed tail appended
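Note: lentivirally expressed fusions sorted by FACS into six bins by GFP to DsRed ratio, PSI derived from sequencing read proportions per bin multiplied by bin number.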

Row | Variant | protein stability index
1 | EGLLRFSSWPFSIQDVVQPLTCQV | 1.85
2 | EGLLRFSSWPFSIQDVVQPLTKQV | 1.76
3 | EGLLRFSSWPFSIQDVVQPLTTQV | 2.47
4 | EGLLRFSSWPFSIQDVVQPLTFQV | 3.96
5 | EGLLRFSSWPFSIQDVVQPLTIQV | 2.13
6 | EGLLRFSSWPFSIQDVVQPNTLQV | 1.54
7 | EGLLRFSSWPFSIQDVVQPETLQV | 1.89
8 | EGLLRFSSWPFSIQDVVQPRTLQV | 1.24
9 | EGLLRFSSWPFSIQDVVQPDTLQV | 1.98
10 | EGLLRFSSWPFSIQDVVQPITLQV | 5.25
11 | EGLLRFSSWPFSIQDVVQPPTLQV | 1.63
12 | EGLLRFSSWPFSIQDVVQPKTLQV | 1.19
13 | EGLLRFSSWPFSIQDVVQPTTLQV | 1.73
14 | EGLLRFSSWPFSIQDVVQPATLQV | 1.65
15 | EGLLRFSSWPFSIQDVVQPQTLQV | 2.28
16 | EGLLRFSSWPFSIQDVVQPSTLQV | 2.4
17 | EGLLRFSSWPFSIQDVVQPHTLQV | 1.22
18 | EGLLRFSSWPFSIQDVVQPLDLQV | 1.58
19 | EGLLRFSSWPFSIQDVVQPLPLQV | 1.8
20 | EGLLRFSSWPFSIQDVVQPLNLQV | 1.74
21 | EGLLRFSSWPFSIQDVVQPLELQV | 2.9
22 | EGLLRFSSWPFSIQDVVQPLQLQV | 2.63
23 | EGLLRFSSWPFSIQDVVQPLGLQV | 5.2
24 | EGLLRFSSWPFSIQDVVQPLLLQV | 4.97

Row | Variant | protein stability index
25 | EGLLRFSSWPFSIQDVVQPLVLQV | 2.81
26 | EGLLRFSSWPFSIQDVVQPLCLQV | 1.52
27 | EGLLRFSSWPFSIQDVVQPLSLQV | 3.58
28 | EGLLRFSSWPSSIQDVVQPLTLQV | 3.39
29 | EGLLRFSSWPTSIQDVVQPLTLQV | 2.46
30 | EGLLRFSSWPRSIQDVVQPLTLQV | 1.7
31 | EGLLRFSSWPFSIQNVVQPLTLQV | 2.13
32 | EGLLRFSSWPFSIQYVVQPLTLQV | 2.41
33 | EGLLRFSSWPFSIQMVVQPLTLQV | 2.12
34 | EGLLRFSSWPFSIQKVVQPLTLQV | 1.48
35 | EGLLRFSSWPFSIQIVVQPLTLQV | 1.3
36 | EGLLRFSSWPFSIQQVVQPLTLQV | 3.59
37 | EGLLRFSSWPFSIQEVVQPLTLQV | 3.9
38 | EGLLRFSSWPFSIQLVVQPLTLQV | 2.63
39 | EGLLRFSSWPFHIQDVVQPLTLQV | 2.25
40 | EGLLRFSSWPFMIQDVVQPLTLQV | 3.22
41 | EGLLRFSSWPFDIQDVVQPLTLQV | 1.95
42 | EGLLRFSSWPFPIQDVVQPLTLQV | 2.66
43 | EGLLRFSSWPFGIQDVVQPLTLQV | 2.04
44 | EGLLRFSSWPFSIQDVEQPLTLQV | 1.38
45 | EGLLRFSSWPFSIQDVNQPLTLQV | 2.03
46 | EGLLRFSSWPFSIQDVCQPLTLQV | 3.22
47 | EGLLRFSSWPFSIQDVFQPLTLQV | 2.53
48 | EGLLRFSSWPFSIQDVKQPLTLQV | 2.35

Row | Variant | protein stability index
49 | EGLLRFSSWPFSIQDVDQPLTLQV | 1.37
50 | EGLLRFSSWPFSIQDVHQPLTLQV | 3.15
51 | EGLLRFSSWPFSIQDDVQPLTLQV | 1.08
52 | EGLLRFSSWPFSIQDPVQPLTLQV | 3.33
53 | EGLLRFSSWPFSIQDLVQPLTLQV | 1.28
54 | EGLLRFSSWPFSIQDKVQPLTLQV | 2.57
55 | EGLLRFSSWPFSIQDHVQPLTLQV | 3.18
56 | EGLLRFSSWPFSIQDCVQPLTLQV | 3.11
57 | EGLLRFSSWPFSIQDTVQPLTLQV | 3.01
58 | EGLLRFSSWPFSIQDIVQPLTLQV | 2.78
59 | EGLLRFSSWPFSIQDEVQPLTLQV | 1.09
60 | EGLLRFSSWPFSIQDSVQPLTLQV | 4.02
61 | EGLLRFSSWPFSITDVVQPLTLQV | 1.79
62 | EGLLRFSSWPFSIRDVVQPLTLQV | 2.64
63 | EGLLRFSSWPFSIYDVVQPLTLQV | 3.36
64 | EGLLRFSSWPFSIQDVVQPLTLQC | 2.23
65 | EGLLRFSSWPFSIQDVVQPLTLQG | 2.14
66 | EGLLRFSSWPFSIQDVVQPLTLQE | 2.06
67 | EGLLRFSSWPFSIQDVVQPLTLQT | 1.45
68 | EGLLRFSSWPFSIQDVVQPLTLQR | 2.75
69 | EGLLRFSSWPFSIQDVVQPLTLQN | 1.59
70 | EGLLRFSSWPFSIQDVVQPLTLQF | 3.48
71 | EGLLRFSSWPFSIQDVVQPLTLQK | 2.17
72 | EGLLRFSSWPFSIQDVVQPLTLQM | 5.7

Row | Variant | protein stability index
73 | EGLLRFSSWPFSIQDVVQPLTLQY | 3.1
74 | EGLLRFSSWPFSIQDVVQPLTLQL | 2.77
75 | EGLLRFSSWPFSIQDVVQPLTLQQ | 1.53
76 | EGLLRFSSWPFSIQDVVQPLTLQS | 1.79
77 | EGLLRFSSWPFSIQDVVQPLTLQD | 1.97
78 | EGLLRFSSWPFSIQDVVQPLTLQP | 1.57
79 | EGLLRFSSWPFSIQDVVQPLTLQI | 2.38
80 | EGLLRFSSWPFSIQDVVQPLTLQW | 2.53
81 | EGLLRFSSWPFSIQDVVQPLTLQA | 2.15
82 | EGLLRFSSWPFSIQDVVQLLTLQV | 4.13
83 | EGLLRFSSWPFSIQDVVQILTLQV | 2.96
84 | EGLLRFSSWPFSIQDVVQWLTLQV | 1.56
85 | EGLLRFSSWPFSIQDVVQSLTLQV | 4.01
86 | EGLLRFSSWPFSEQDVVQPLTLQV | 1.22
87 | EGLLRFSSWPFSWQDVVQPLTLQV | 1.29
88 | EGLLRFSSWPFSCQDVVQPLTLQV | 1.56
89 | EGLLRFSSWPFSRQDVVQPLTLQV | 2.4
90 | EGLLRFSSWPFSTQDVVQPLTLQV | 2.84
91 | EGLLRFSSWPFSKQDVVQPLTLQV | 2.53
92 | EGLLRFSSWPFSFQDVVQPLTLQV | 3.26
93 | EGLLRFSSWPFSHQDVVQPLTLQV | 1.94
94 | EGLLRFSSWPFSDQDVVQPLTLQV | 1.86
